According to US10682427B2, “Intra-operative imaging” (BRACCO IMAGING S.P.A., priority 2014, dated 2020):
Where two headings read alike, the source gives them in different places.

Assays:
[1] = Plasma kinetic after single intravenous administration (HPLC with fluorimetric detector); format: in vivo, CD-1(ICR)BR mice; conditions: mice; for plasma concentration (mean from a triplicate result): LOD=0.0012 nmol/mL; for clearance: read-out: total plasma clearance; for Vd: read-out: volume distribution at steady state (Vdss)
Experimental: The plasma kinetic of the NIRF probe DA364 was evaluated after a single intravenous administration in CD-1(ICR)BR mice.
The fluorescent probe is administered at dose of 0.4 μmol/kg, corresponding to about 10 times the effective dose used in imaging studies (1 nmol/mouse, considering an average mouse body weight of 25 g). Animals were sacrificed at different time points up to and including 14 days after treatment and blood samples were collected for the determination of DA364 content, performed by using an HPLC method coupled with a fluorimetric detector.
The NIR agent DA364, pre-warmed at room temperature, was intravenously injected at a dose of 0.4 μmol/kg, via tail vein, at an injection rate of 1 mL/min with a Harvard infusion pump. The administered dose corresponds to about 10 times the effective dose used in imaging studies. The intravenous administration route was chosen as possible route of exposure for humans.
Animals (three for each time point) were sacrificed before and 5 min, 10 min, 20 min, 30 min, 60 min, 4 h, 24 h, 48 h, 7 days and 14 days after DA364.
The day of sacrifice animals were anesthetized with sevoflurane, at an expiratory concentration of 3-4% in induction and 2-3% in maintenance and then sacrificed by decapitation. Blood for HPLC determinations (at least 0.5 mL) was collected using heparinized tubes. Plasma obtained after centrifugation (2100 g for 10 min) was stored at −80° C. until the day of analysis.
Determination of the amount of DA364 in plasma samples was carried out by an HPLC method coupled with a fluorimetric detector previously prompted.
Plasma samples (S) were prepared by adding 100 μL of acetate buffer and 100 μL of a Methanol Acetonitrile solution (50:50) to 100 μL of diluted plasma. Tubes will be stirred and subsequently centrifuged at 4° C. for 10 minutes at 13000 g. Ten microliters of the clear supernatant will be injected into the HPLC equipment. Appropriate dilution was performed in case of plasma samples too concentrated.
The HPLC determination was performed by interpolating calibration curves of DA364 in plasma and organs, prepared by assaying calibration standard samples (CAL) (6 concentrations, 3 replicates for each concentration) of the fluorescent agent DA364.
Blood for HPLC determinations (at least 0.5 mL) was collected in heparinized tubes. Plasma concentration of DA364 was measured by an HPLC method coupled with a fluorimetric detector.
To evaluate the systemic exposure, Cmax and the area under the plasma DA364 concentration curve as a function of time (AUC) were calculated by non-parametric methods using the computer program WIN-NONLIN 6.3 (WinNonlin 6.3 SCI Software, Lexington, Ky., USA). For the tested dose, a non-compartmental analysis was performed using the average plasma concentrations from 3 animals for each time point. For Cmax and the corresponding tmax the observed values were reported. Area under the plasma concentration-time curve to the last observable plasma concentration (AUC(0 to t)) was calculated from observed data using the logarithmic trapezoidal method. […].

[2] = Ex vivo fluorescent signal in excised organs (IVIS Spectrum); parameters: species or system mice; conditions: 48 hours after 1 nmol i.v.
Experimental: Three weeks after A431 tumor implantation five mice were administered with 1 nmol of DA364 for a total administration volume of 0.2 mL (inj. rate 1 mL/min). In vivo OI acquisitions have been carried out 5 min, 15 min, 30 min, 1 h, 2 h, 3 h, 4 h, 6 h, 24 h and 48 hours after intravenous administration of the fluorescent probe using the IVIS Spectrum optical imaging system (Perkin Elmer). During OI experiments animals were kept under 3-4% Sevofluorane gas anaesthesia (O2 97.0-96.0%). During anaesthesia animals body temperature has been stabilized at about 37° C. using a heated bed.
Following in vivo OI experiments, 48 hours after probes injection, animals were sacrificed. Tumors, liver, kidneys, heart and spleen were excised for ex vivo fluorescent signal measure on the whole excised tumor or organ.
The fluorescent signal (expressed as Radiant Efficiency (RE): p/s/(μW/cm^2), where p is the photon count), was then measured on the excised ex vivo samples using the IVIS Spectrum optical imaging system (Perkin Elmer).

[3] = Normalized excitation and emission spectra; format: physicochemical
From the text: The normalized excitation and emission spectra of the NIR agent in PBS (ex/em: 674/694; Stokes Shift: 20 nm) and in SERONORM (human-based control serum) (694/704, Stokes Shift 10 nm) are shown in FIG. 2. As shown in the figure, the interaction of the DA364 contrast agent with serum albumin promotes the shift of the emission maximum from 694 nm to 704 nm (in PBS and in SERONORM (human-based control serum) respectively) and also the reduction of the Stokes shift.

[4] = CD-1(ICR)BR, mouse, plasma, iv, 0.4 umol/kg, 0.4 μmol/kg i.v.
[5] = CD-1(ICR)BR, mouse, plasma, iv, 0.4 umol/kg, 0.4 μmol/kg i.v., per animal
[6] = SERONORM (human-based control serum)

CC[N+]1=C(/C=C/C=C/C=C2/N(CCCCCC(=O)NC[C@@H]3C[C@@H]4CC[C@H]5C(=O)N[C@@H](CCCNC(=N)N)C(=O)NCC(=O)N[C@@H](CC(=O)O)C(=O)N[C@H]3C(=O)N45)c3ccc4c(S(=O)(=O)O)cc(S(=O)(=O)O)cc4c3C2(C)C)C(C)(C)c2c1ccc1c(S(=O)(=O)[O-])cc(S(=O)(=O)O)cc21 [DA364]
plasma concentration (mean from a triplicate result) ([1]; 1440 min after 0.4 μmol/kg i.v.): <LOD | plasma concentration (mean from a triplicate result) ([1]; 2880 min after 0.4 μmol/kg i.v.): <LOD | plasma concentration (mean from a triplicate result) ([1]; 10080 min after 0.4 μmol/kg i.v.): <LOD | plasma concentration (mean from a triplicate result) ([1]; 20160 min after 0.4 μmol/kg i.v.): <LOD | AUC(0-inf) [1, 4]: 1.28 µM·h | Cmax [1, 4]: 1630 nM | Tmax [1, 4]: 5 min | clearance [1, 5]: 0.15 mL/min | Vd [1, 5]: 0.01 L | half-life ([1]; CD-1(ICR)BR, mouse, plasma, iv, 0.4 umol/kg, 0.4 μmol/kg i.v., read-out: half life associated with the terminal elimination phase): 64 min | clearance [1, 4]: 5 mL/min/kg | Vd [1, 4]: 0.329 L/kg | level at time molar at 5 min ([1]; CD-1(ICR)BR, mouse, plasma, iv, 0.4 umol/kg, 5 min after 0.4 μmol/kg i.v., read-out: plasma concentration (mean from a triplicate result)): 1630 nM | level at time molar at 10 min ([1]; CD-1(ICR)BR, mouse, plasma, iv, 0.4 umol/kg, 10 min after 0.4 μmol/kg i.v., read-out: plasma concentration (mean from a triplicate result)): 1100 nM | level at time molar at 20 min ([1]; CD-1(ICR)BR, mouse, plasma, iv, 0.4 umol/kg, 20 min after 0.4 μmol/kg i.v., read-out: plasma concentration (mean from a triplicate result)): 612 nM | level at time molar at 0.5 h ([1]; CD-1(ICR)BR, mouse, plasma, iv, 0.4 umol/kg, 30 min after 0.4 μmol/kg i.v., read-out: plasma concentration (mean from a triplicate result)): 518 nM | level at time molar at 1 h ([1]; CD-1(ICR)BR, mouse, plasma, iv, 0.4 umol/kg, 60 min after 0.4 μmol/kg i.v., read-out: plasma concentration (mean from a triplicate result)): 278 nM | level at time molar at 4 h ([1]; CD-1(ICR)BR, mouse, plasma, iv, 0.4 umol/kg, 240 min after 0.4 μmol/kg i.v., read-out: plasma concentration (mean from a triplicate result)): 51 nM | Fluorescence Signal (Radiant Efficiency) ([2]; excised heart ex vivo): 4.61E+07 p/s/(μW/cm^2) | Fluorescence Signal (Radiant Efficiency) ([2]; excised kidney ex vivo): 3.55E+08 p/s/(μW/cm^2) | Fluorescence Signal (Radiant Efficiency) ([2]; excised liver ex vivo): 4.04E+08 p/s/(μW/cm^2) | Fluorescence Signal (Radiant Efficiency) ([2]; excised spleen ex vivo): 5.79E+07 p/s/(μW/cm^2) | Stokes Shift ([3]; PBS): 20 nm | emission maximum (em) ([3]; PBS): 694 nm | excitation maximum (ex) ([3]; PBS): 674 nm | Stokes Shift [3, 6]: 10 nm | emission maximum (em) [3, 6]: 704 nm | excitation maximum (ex) [3, 6]: 694 nm
